Test results from the Human Domainome abundance scans (Beltran et al. 2025).

B1: Intersectin-1, residues 1156 to 1213; numbered along this chain, Q15811 (parent)
chain: AVCQVIGMYDYTAQNDDELAFNKGQIINVLNKEDPDWWKGEVNGQVGLFPSNYVKLTT

Variants of: B1
Assay: abundance fitness (aPCA) (normalised: wild type 0, dead -1); higher = more abundant; growth selection in yeast, the domain comes from the species named
Conditions: Homo sapiens

Abundance fitness: each site, then its substitutions
E33: D -0.047; F -0.61; G -0.241; H -0.373; I -0.451; K -0.236; L -0.497; N -0.516; P -0.6; Q -0.077; R -0.367; S -0.101; T -0.075; V -0.324; W -0.987
D34: A -0.385; C -0.553; E -0.376; F -0.554; G -0.409; H -0.158; I -0.974; K -0.176; L -0.673; N -0.348; P -0.543; Q -0.489; R -0.116; S -0.221; T -0.383; V -0.691; W -0.894; Y -0.94
D36: A -0.004; C -0.117; E -0.196; F -0.175; G -0.279; H -0.08; I -0.138; K 0.071; L -0.072; M -0.018; N -0.203; P -0.53; Q -0.218; R -0.009; S -0.131; T -0.143; V -0.069; Y 0.01
W37: A -0.585; C -0.588; D -0.637; E -0.737; F -0.307; G -0.72; H -0.887; I -0.022; K -0.792; L -0.339; M 0.004; P -0.947; Q -0.223; R -0.49; S -0.778; T -0.276; Y -0.058
W38: A -0.533; C -0.793; D -0.674; E -0.779; F -0.859; G -0.822; H -0.793; I -1.03; K -0.671; L -0.737; M -0.733; N -0.644; P -0.853; Q -0.715; R -1.08; S -0.763; T -0.892; V -0.906; Y -0.791
K39: V -0.448
G40: A -0.753; D -0.722; E -0.769; F -0.953; H -0.832; I -0.752; K -0.848; L -0.783; M -0.658; P -0.591; S -0.839; T -0.56; V -0.891; W -0.981; Y -0.73
E41: A -0.568; C -0.787; D -1.11; F -1.22; G -0.842; H -0.495; I -0.936; K -0.456; N -0.889; P -1; Q -0.863; R -0.746; S -0.299; V -0.681; W -0.642; Y -0.887
V42: A 0.041; C 0.091; D -0.663; E -0.949; G -0.62; H -0.237; I -0.048; K -0.405; L 0.018; M -0.093; N -0.756; P -0.72; Q -0.617; R -0.274; T -0.299; W -0.811; Y 0.042
N43: A -0.263; C -0.541; D -0.03; E -0.189; F -0.799; G -0.241; H -0.08; I -0.93; K -0.411; L -0.412; M -0.56; P -0.736; Q -0.36; R -0.436; S -0.294; T -0.85; V -0.794; W -1.06; Y -0.734
G44: A -0.56; C -0.682; D -0.397; E -0.911; H -0.658; I -0.797; K -0.981; L -0.879; M -0.88; N -0.219; P -0.806; Q -0.613; R -0.83; S -0.677; T -0.92; W -0.832; Y -0.734
Q45: A 0.016; C -0.03; D 0.075; E -0.149; F -0.387; G -0.662; H -0.398; I -0.1; K 0.084; L -0.28; M -0.023; N 0.109; P -0.765; R -0.043; S -0.198; T -0.169; V 0.008; W -0.537; Y -0.411
V46: A -0.505; C -0.503; D -0.668; E -0.412; F -0.463; G -0.712; H -0.562; I -0.006; K -0.306; L -0.499; M -0.396; N -0.703; Q -0.242; R -0.375; S -0.296; T -0.337; W -0.892; Y -0.34
G47: A -0.755; C -0.974; D -0.833; E -0.853; F -1.01; H -0.943; I -0.846; K -0.582; L -0.881; N -0.651; P -0.867; Q -0.6; R -0.786; S -0.828; T -0.941; V -0.796; W -0.802; Y -0.908
L48: D -0.761; E -0.784; F 0.146; G -0.544; H -0.335; I 0.063; K -0.055; M -0.111; N -0.166; P -0.886; Q -0.479; R -0.07; S -0.258; T -0.184; V -0.068; W 0.028; Y -0.056
F49: A -0.743; C -0.871; D -0.485; E -0.816; G -0.829; I -0.184; K -0.84; L -0.527; M -0.725; N -0.431; P -0.814; Q -0.661; R -0.862; S -0.817; T -0.861; V -0.391; W -0.76; Y -0.782
P50: C -0.615; D -0.507; E -0.847; F -0.459; H -0.973; I -0.671; K -0.547; L -0.873; M -0.799; N -0.71; Q -1.06; R -0.323; S -0.954; T -0.773; V -0.929; W -0.713; Y -0.932
S51: A -0.029; C -0.504; E -1.02; F -0.942; G -0.87; H -0.517; I -0.751; K -0.09; L -0.867; N -0.506; P -0.235; Q -0.452; R -0.053; T -0.312; V -0.181; W -0.877; Y -0.927
N52: A -0.183; C -0.251; D -0.079; E -0.201; F -0.784; G -0.253; H -0.469; I -0.364; L -0.561; M -0.097; P -0.544; Q -0.147; R 0.022; S -0.075; T -0.067; V -0.439; W -0.446; Y -0.291
Y53: A 0.043; C 0.034; D -0.834; E -0.711; F -0.208; G -0.601; H -0.26; I -0.239; K 0.085; L -0.155; M 0.12; N -0.54; P -0.726; Q -0.224; R -0.068; S -0.426; T -0.11; V -0.343; W -0.255
V54: A -0.546
